The Immune Epitope Database (IEDB)

Target: HLA-A*02:01
Assay: IEDB peptide-MHC binding, purified MHC/competitive/radioactivity; ≥ and ≤ were set here for values at or beyond the usual limits of such assays
[1] = source organism: Vaccinia virus WR
[2] = source organism: Mammarenavirus whitewaterense
[3] = source organism: Mammarenavirus machupoense
[4] = source organism: Mammarenavirus juninense
[5] = source organism: Mammarenavirus brazilense

Sequence	IC50 [1] [nM]	further results
ELKETLLHV	4330	–
FVARVFLGL	19	–
AMIELCGAFL	0.78	–
FLTAALPVKL	384	–
NTFYLFTFT	492	–
FVIVIYIFTV	122	–
LLSAINFKI	0.54	–
SMTENVEEDL	755	–
LTDSLSSQM	4270	–
MVISLLSMI	155	–
YLVDVETIGV	0.17	–
FLRYLLFGI	2.5	–
SIEGELESL	3940	–
ITLYDFDYYI	29	–
WLLGFIKCI	25	–
YLPLSVFII	6.2	–
ILYDNVVTL	0.51	–
IVYCLNALV	102	–
FIKQGFNNLV	119	–
MIITAVNSL	–	IC50 [2]: 2430 nM
TLIDDPDNNL	781	–
YVLLHLLVV	101	–
YANNDKFRL	587	–
ATYHIIIVAL	1150	–
TLRHIIGLLM	748	–

Sequence	IC50 [1] [nM]	further results
LIVLFEVFV	1930	–
GIFCFRILL	7.8	–
KVTRFYFNM	95	–
DVVILLLSSV	907	–
VIHDYICWL	12	–
RMILYLESV	1.8	–
EVGIKSVVV	123	–
MTFGDIPLV	0.98	–
FIIEVSNCV	13	–
FTFSNVCESV	2.4	–
KLMIYGLPWM	11	–
ILSDDMLNI	7.6	–
QLVWENFLA	22	–
LLVAPMPTA	13	–
KIADDRIVV	6.6	–
MLNFSIYSV	0.15	–
PIKFIAEFLV	4460	–
RQIFIHYSV	0.65	–
NVYPGVWNT	830	–
TIDGRIVTL	2170	–
SMMNRDKIPI	1360	–
YQYVRLHEM	9.2	–
RISMVISLL	1460	–
ALLPLSLLFL	–	IC50 [3]: 4.7 nM
CLCSFHNDA	4140	–

Sequence	IC50 [1] [nM]	further results
YLIKLIEPV	8	–
NLTEMQEAV	–	IC50 [3]: 547 nM
TIMGVIFLI	9.6	–
SVVVPIKFI	2960	–
FMASPENVI	13	–
HIFYQLANV	5.8	–
IMYTYFSNT	57	–
FMQRIISLSV	1.8	–
KLSSYHVVSV	16	–
YIIKKNDIV	2000	–
YTYAFTKKV	16	–
IVSVSESNI	2350	–
VLDATNDGLI	369	–
PLGILSNYV	2710	–
KQDISLKRNA	778	–
IIDFLEGAL	919	–
YTYFSNTILL	189	–
SMISRHCCI	986	–
IILLFDFSI	162	–
LLFLVCFPST	413	–
NIEKYFTFLV	1450	–
DAMPGVLSYV	–	IC50 [3]: 44 nM
IVIEAIHTV	1410	–
KLGNLLLLI	0.43	–
KLVDICDRI	6.9	–

Sequence	IC50 [1] [nM]	further results
VIFLISVIVL	1540	–
LLYLILFLL	2200	–
GTINRILVIT	1230	–
FMYFCEQKL	1.9	–
MINDTHFLL	–	IC50 [2]: 265 nM
NLYDDNDIRT	40	–
KLFFAKCLVV	2.3	–
ALVAVSLIAI	–	IC50 [4]: 324 nM
RMAWGGSYIA	–	IC50 (source organism: Mammarenavirus lassaense): 294 nM
KLHLISLLSL	97	–
EAAITDAAV	2320	–
HLIKIPLLI	1.9	–
ALNHLVLSL	0.45	–
VMTPSPFYTV	26	–
MASPENVIL	846	–
GLHCDFACLM	2800	–
IMFKDDNII	235	–
GLKKIIQRV	1700	–
SLQTCAGVI	2850	–
FLHTTFIDV	0.46	–
SVVIYDFLV	1.1	–
IVWEKKSLV	2.1	–
GLDLENLYAV	3.5	–
ETIGNQLYL	3540	–
FILTAILFFM	0.12	–

Sequence	IC50 [1] [nM]	further results
GLLDRLYDL	0.13	–
GLFQLIFFLT	–	IC50 [5]: 1230 nM
LLSLLVIWI	148	–
IVALTIMGV	27	–
STLIVTIYV	677	–
ILVCYILYI	19	–
NLNIVRDMLV	28	–
LLFLKVPA	–	IC50 (source organism: Influenza A virus): 266 nM
FLRGEAILQI	85	–
LVASLNPNM	387	–
FLIPKGFYA	0.82	–
CMVNHSTYYV	–	IC50 [5]: 73 nM
GLFQFFVFLA	–	IC50 [4]: 26 nM
FLKIKVTAA	52	–
NIYCLEYINT	882	–
SLYDQKEINA	267	–
SLFSLLLVI	5.8	–
AASSTHRKV	2640	–
SLIAIIKGIV	–	IC50 [4]: 763 nM
FMYIESIKV	1.3	–
AMFTTMYNI	2.8	–
SMSSYDFST	0.34	–
YLLCCNYKL	0.36	–
CISQHQHLA	449	–
SIISHNFCNL	–	IC50 (source organism: Mammarenavirus choriomeningitidis): 3680 nM
